Substrate: Nc1nc2nc[nH]c2c(=O)[nH]1
Experiment: purified protein
Details: zinc active site

B1: Guanine deaminase (GDA) (Homo sapiens) (protein)
chain: MCAAQMPPLAHIFRGTFVHSTWTCPMEVLRDHLLGVSDSGKIVFLEEASQQEKLAKEWCFKPCEIRELSHHEFFMPGLVDTHIHASQYSFAGSSIDLPLLEWLTKYTFPAEHRFQNIDFAEEVYTRVVRRTLKNGTTTACYFATIHTDSSLLLADITDKFGQRAFVGKVCMDLNDTFPEYKETTEESIKETERFVSEMLQKNYSRVKPIVTPRFSLSCSETLMGELGNIAKTRDLHIQSHISENRDEVEAVKNLYPSYKNYTSVYDKNNLLTNKTVMAHGCYLSAEELNVFHERGASIAHCPNSNLSLSSGFLNVLEVLKHEVKIGLGTDVAGGYSYSMLDAIRRAVMVSNILLINKVNEKSLTLKEVFRLATLGGSQALGLDGEIGNFEVGKEFDAILINPKASDSPIDLFYGDFFGDISEAVIQKFLYLGDDRNIEEVYVGGKQVVPFSSSV
With B1 the Km was 12 ± 9 µM.
